This note sets out measurements from US20040053822A1 (published 2004).

Read-outs that look alike come from different tables or passages of the source.

One assay concerns the target HLA-B*5301 (human). Briefly: competition vs 125I probe peptide, purified HLA.
The next assay deals with HLA-B*5101 (human). Put plainly: competition vs 125I probe peptide, purified HLA.
Another assay has as its target HLA-B*3501 (human). Put plainly: competition vs 125I probe peptide, purified HLA.
Another assay deals with HLA-B*0702 (human). Put plainly: competition vs 125I probe peptide, purified HLA.
The next assay addresses HLA-B*5401 (human). Briefly: competition vs 125I probe peptide, purified HLA.
The target in a further assay is HLA-A*0202 (human). Briefly: competition with 125I probe peptide, purified HLA.
The target in assay [1] is HLA-A*0201 (human). Briefly: competition with 125I probe peptide, purified HLA.
The target in the next assay is HLA-DRB1*0101 (human). Briefly: inhibition of 125I-probe binding to purified HLA-DR.
Assay [2] concerns the target HLA-A*0201 (human). Put plainly: competition with 125I probe peptide, purified HLA, gel filtration. On the technique in general: In gel filtration, larger molecules generally elute earlier.
A further assay addresses HLA-A*0206 (human). Put plainly: competition with 125I probe peptide, purified HLA.
The next assay concerns the target HLA-A*6802 (human). Briefly: competition with 125I probe peptide, purified HLA.
Another assay has as its target HLA-A*0203 (human). Briefly: competition with 125I probe peptide, purified HLA.
The target in assay [3] is HLA-DRB1*0301 (human). Briefly: inhibition of 125I probe peptide binding to purified HLA.
In assay [4] the target is HLA-DRB1*0301 (human). The assay is described as above. This is another data set of the same source.
Assay [5] concerns the target HLA-A*0201 (human). Put plainly: competition with 125I-labelled probe peptide for purified HLA-A*0201.

By IC50 is commonly meant the concentration that inhibits the measured activity by half. Low readings indicate higher potency, high ones lower potency.

Consider FPIGHLYIFA [MAGE3.170.F1 FPIGHLYIFA], for which the IC50 came to 179 nM with HLA-B*5301; 56 nM with HLA-B*5101; 51 nM with HLA-B*3501; 39 nM with HLA-B*0702; 0.4 nM with HLA-B*5401.

FPIGHLYIFI [MAGE3.170.F1I10 FPIGHLYIFI]: the values for the half-inhibitory concentration (IC50) with HLA-B*5301 and with HLA-B*3501 were 8.5 nM and 139 nM, respectively.

HLYIFATCLGL [MAGE3.174 11-mer HLYIFATCLGL]: the IC50 with HLA-A*0202 came to 741 nM; with HLA-A*0201 [1], 56 nM.

With LLIIVLAIIAIEGDC [MAGE2.201 (15-mer)], in the assay with HLA-DRB1*0101, the IC50 is ≤ 1000 nM.

As to GLEARGEAL [MAGE3 peptide, position 15, 9 amino acids], the relative binding ratio in the assay with HLA-A*0201 [2] is 0.0001 ratio (IC50 standard / IC50 test peptide).

FPTTMNYPLW [MAGE3.71.F1 FPTTMNYPLW] yielded an IC50 in the assay with HLA-B*0702 of 220 nM.

LIIVLAIIAIEGDCA [MAGE2.202 (15-mer)]: in the assay with HLA-DRB1*0101, the IC50 is ≤ 1000 nM.

Turning to ALIETSYVKV [MAGE2.277 10-mer ALIETSYVKV], the half-maximal inhibitory concentration (IC50) came to 1950 nM in the assay with HLA-A*0206, 729 nM in the assay with HLA-A*0202 and 3080 nM in the assay with HLA-A*6802.

As to FPKAGLLI [MAGE3.196.F1I8 FPKAGLLI], the IC50 came out at 775 nM with HLA-B*5301 and 46 nM with HLA-B*5401.

In the case of FPKTGLLI [MAGE2.196.F1I8 FPKTGLLI], the half-maximal inhibitory concentration (IC50) with HLA-B*5301 was 3320 nM; with HLA-B*0702 it was 134 nM.

Turning to FPLWSQSI [MAGE3.77.F1 FPLWSQSI], the IC50 in the assay with HLA-B*5301 stood at 245 nM; with HLA-B*3501 it was 1010 nM; with HLA-B*0702 it was 122 nM.

Regarding KLAELVHFL [MAGE3.112L2 KLAELVHFL], the figures for the IC50 in the assay with HLA-A*0203 and with HLA-A*6802 were 5.9 nM and 400 nM, respectively.

As for KMAELVHFV [MAGE3.112M2V9 KMAELVHFV], the concentration for half-maximal inhibition (IC50) worked out at 46 nM with HLA-A*0203 and 39 nM with HLA-A*0206.

As to KLAELVHFV [MAGE3.112L2V9 KLAELVHFV], the concentration for half-maximal inhibition (IC50) with HLA-A*6802 turned out to be 73 nM.

For FPIGHLYII [MAGE3.170.F1I9 FPIGHLYII], the results for the IC50 with HLA-B*5101 and in the assay with HLA-B*5401 were 5 nM and 0.6 nM, respectively.

Turning to FPKAGLLIIV [MAGE3.196.F1 FPKAGLLIIV], the IC50 is 4650 nM in the assay with HLA-B*5301; 190 nM with HLA-B*5101; 878 nM with HLA-B*3501; 220 nM with HLA-B*0702; 1.1 nM in the assay with HLA-B*5401.

In the case of FPKAGLLIII [MAGE3.196.F1I10 FPKAGLLIII], the figures for the half-maximal inhibitory concentration (IC50) with HLA-B*5301 and with HLA-B*5101 were 846 nM and 65 nM, respectively.

With FPQGASSI [MAGE3.64.F1 FPQGASSI], the IC50 stood at 3000 nM with HLA-B*5301 and 400 nM in the assay with HLA-B*5401.

In the case of FPHISYPPL [MAGE2.296.F1 FPHISYPPL], the IC50 in the assay with HLA-B*5101 is 177 nM. This lies in the sub-micromolar range.

Consider FPHISYPPI [MAGE3.296.F1I9 FPHISYPPI], for which the 50% inhibitory concentration (IC50) came to 233 nM with HLA-B*5301, 360 nM in the assay with HLA-B*3501 and 1.4 nM with HLA-B*5401.

Take KIWEELSML [MAGE2.220 9-mer KIWEELSML]: the IC50 in the assay with HLA-A*0203 is 175 nM; in the assay with HLA-A*0202, 642 nM.

With FPTTMNYPL [MAGE3.71.F1 FPTTMNYPL], the IC50 in the assay with HLA-B*5301 was determined as 39 nM; with HLA-B*5101 it was 423 nM; in the assay with HLA-B*3501 it was 4.5 nM; with HLA-B*0702 it was 6.4 nM; with HLA-B*5401, 3 nM.

As for FPTTMNYPI [MAGE3.71.F1I9 FPTTMNYPI], the concentration for half-maximal inhibition (IC50) with HLA-B*5301 came out at 8.5 nM; in the assay with HLA-B*0702 it was 59 nM; in the assay with HLA-B*5401 it was 1.5 nM.

For IIAIEGDCAPEEKIW, the relative binding ratio with HLA-DRB1*0301 [3] and with HLA-DRB1*0301 [4] was 0.066 IC50 standard/IC50 peptide each time.

On to FPRALIETSYI [MAGE2.274.F1I11 FPRALIETSYI], for which the IC50 stood at 465 nM in the assay with HLA-B*5301; 70 nM with HLA-B*5101; 3600 nM with HLA-B*3501; 7.4 nM with HLA-B*0702; 127 nM in the assay with HLA-B*5401.

Regarding FPRALVETSYI [MAGE3.274.F1I11 FPRALVETSYI], the IC50 is 620 nM with HLA-B*5301, 5540 nM with HLA-B*3501 and 59 nM with HLA-B*5401.

For the molecule FPRALIETSYV [MAGE2.274.F1 FPRALIETSYV], the IC50 with HLA-B*5301 was 7750 nM; with HLA-B*5101, 128 nM; in the assay with HLA-B*3501, 4500 nM.

In turn, FPRALVETSYV [MAGE3.274.F1 FPRALVETSYV] came in with an IC50 with HLA-B*3501 of 4240 nM.

For GLEARGEAL [MAGE2 peptide, position 15, 9 amino acids], the relative binding ratio with HLA-A*0201 [5] stood at 0.0001 ratio.
